Source: patent publication US20210277137A1 (AbbVie / Abbott, published 2021)
Numbering of substitutions follows the chain as printed. Numbers in names are those of the source.

What was measured:
human CD40 on cells [1] = target: T1, human CD40 on cells (human, UniProt P25942 21-277); test: cell-based or functional assay
[2] = target: T2, CD40-human Fc (huFc) fusion protein (Creative BioMart) (human, UniProt P25942 21-193); test: competition ELISA: antibody titrated into 1 µg/mL CD40-huFc, mixture added to plate coated with HA-tagged CD40L, bound CD40-huFc detected with HRP anti-human Fc; blocked ligand: CD40L
T2 construct: bought; also called CD40-huFc; not shown: human Fc
Description: (§1) After development with TMB (3, 3′, 5, 5′-tetramethylbenzidine) substrate, the plates were read at OD₄₅₀.

[3] = target: T2, CD40-human Fc (huFc) fusion protein …; test: ELISA: 1 µg/mL CD40-huFc with control huIgG1 on plate coated or not coated with HA-tagged CD40L, detection with HRP anti-human Fc
Description: as §1

human CD40 on cells [4] = target: T1, human CD40 on cells; test: cell-based or functional assay; remark: listed apart in the source
[5] = target: soluble form of the extracellular domain of human CD40 (Creative BioMart, cat #CD402221H) (human, UniProt P25942 21-193); test: SPR (BIAcore T200); antibody captured by anti-Fc; soluble CD40 injected
Procedure: (§2) CD40 binding kinetics was analyzed by BIAcore assay with a BIAcore T200 instrument. Briefly, a goat anti-mouse Fc antibody (Pierce, cat #31170) or goat anti-human Fc (Pierce, cat #31125) was immobilized on a CM5 sensor chip, followed by capture of the anti-CD40 antibodies on the test surface.

[6] = target: T3, soluble cynomolgus (cyno) CD40 (Creative BioMart, cat #CD40-8824C) (cynomolgus, UniProt G7PG38 21-193); test: as above
T3 construct: extracellular domain; also called Cynomolgus CD40
Procedure: as §2

[7] = target: T4, Alexa Fluor 488-conjugated soluble human CD40 protein (human, UniProt P25942 21-193, limits assumed, Alexa Fluor 488 conjugate (sites not given)); test: flow cytometry: antibody titrated into 1 µg/mL Alexa Fluor 488-conjugated soluble human CD40 on CD40L+ Jurkat cells; half-maximal enhancement of the binding of CD40 to cell-surface CD40L
T4 construct: also called fluorochrome-conjugated human CD40

[8] = target: T2, CD40-human Fc (huFc) fusion protein …; test: ELISA: antibody titrated into 1 µg/mL CD40-huFc, mixture added to plate coated with HA-tagged CD40L, bound complex detected with HRP anti-human Fc; half-maximal enhancement of the signal of CD40-huFc on CD40L
Description: as §1

[9] = target: T5, human FcγRI (CD64) on CHO cells (human, UniProt P12314 16-374); test: flow cytometry on CHO cells stably expressing human FcγRI (CD64), detection with fluorescence-conjugated anti-human F(ab')2 secondary antibody
T5 construct: whole, on cells
Procedure: (§3) Increasing amounts of anti-CD40 human IgG₁ antibodies and their Fc variants were incubated with CHO cells stably expressing different human Fcγ receptors, including FcγRI (CD64), FcγRIIA (CD32a), FcγRIIB (CD32b), and FcγRIIIA (CD16) with either F or V polymorphism. The binding was detected with a fluorescence-conjugated anti-human F(ab′)2 specific secondary antibody (Jackson ImmunoResearch).

[10] = target: T6, human FcγRIIA (CD32a) on CHO cells (human, UniProt P12318 34-317); test: flow cytometry on CHO cells stably expressing human FcγRIIA (CD32a), detection with fluorescence-conjugated anti-human F(ab')2 secondary antibody
T6 construct: whole, on cells
T6 sequence (looked up): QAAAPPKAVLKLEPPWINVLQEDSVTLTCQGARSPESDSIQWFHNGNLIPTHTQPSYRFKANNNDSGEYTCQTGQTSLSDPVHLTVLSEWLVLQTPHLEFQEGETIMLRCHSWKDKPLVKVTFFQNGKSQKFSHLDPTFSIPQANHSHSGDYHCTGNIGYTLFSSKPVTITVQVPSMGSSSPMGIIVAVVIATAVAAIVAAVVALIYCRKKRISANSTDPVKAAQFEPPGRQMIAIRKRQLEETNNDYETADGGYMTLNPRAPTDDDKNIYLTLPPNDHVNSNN
Procedure: as §3

[11] = target: T7, human FcγRIIB (CD32b) on CHO cells (human, UniProt P31994 43-310); test: flow cytometry on CHO cells stably expressing human FcγRIIB (CD32b), detection with fluorescence-conjugated anti-human F(ab')2 secondary antibody
T7 construct: whole, on cells
T7 sequence (looked up): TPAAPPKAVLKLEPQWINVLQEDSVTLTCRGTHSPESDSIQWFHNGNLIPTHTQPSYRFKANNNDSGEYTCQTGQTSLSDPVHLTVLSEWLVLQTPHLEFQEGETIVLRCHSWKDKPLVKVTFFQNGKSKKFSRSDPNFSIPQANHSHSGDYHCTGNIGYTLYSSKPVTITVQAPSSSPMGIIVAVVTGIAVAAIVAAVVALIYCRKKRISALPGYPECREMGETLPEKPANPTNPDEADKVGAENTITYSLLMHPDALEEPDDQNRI
Procedure: as §3

[12] = target: T8, human FcγRIIIA (CD16) with V polymorphism on CHO cells (human, UniProt P08637 17-254); test: flow cytometry on CHO cells stably expressing human FcγRIIIA (CD16V), detection with fluorescence-conjugated anti-human F(ab')2 secondary antibody
T8 construct: whole, on cells; V allotype; also called CD16V
Procedure: as §3

[13] = target: T9, human FcγRIIIA (CD16) with F polymorphism on CHO cells (human, UniProt P08637 17-254); test: flow cytometry on CHO cells stably expressing human FcγRIIIA (CD16F), detection with fluorescence-conjugated anti-human F(ab')2 secondary antibody
T9 construct: whole, on cells; also called CD16F
Procedure: as §3

human CD40 on cells [14] = target: T1, human CD40 on cells; test: cell-based or functional assay; remark: listed apart in the source
[15] = target: T2, CD40-human Fc (huFc) fusion protein …; test: ELISA: CD40-huFc mixed with antibody, binding to plate-bound HA-tagged CD40L
Description: as §1

T1 sequence (P25942 21-277 limits assumed): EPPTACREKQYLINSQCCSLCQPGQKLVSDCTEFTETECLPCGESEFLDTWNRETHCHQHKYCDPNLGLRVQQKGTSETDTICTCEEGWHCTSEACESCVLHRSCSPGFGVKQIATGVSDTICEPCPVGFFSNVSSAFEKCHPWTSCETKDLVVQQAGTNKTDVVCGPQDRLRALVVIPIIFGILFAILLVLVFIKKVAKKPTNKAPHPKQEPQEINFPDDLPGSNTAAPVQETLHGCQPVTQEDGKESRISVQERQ
T5 sequence (P12314 16-374): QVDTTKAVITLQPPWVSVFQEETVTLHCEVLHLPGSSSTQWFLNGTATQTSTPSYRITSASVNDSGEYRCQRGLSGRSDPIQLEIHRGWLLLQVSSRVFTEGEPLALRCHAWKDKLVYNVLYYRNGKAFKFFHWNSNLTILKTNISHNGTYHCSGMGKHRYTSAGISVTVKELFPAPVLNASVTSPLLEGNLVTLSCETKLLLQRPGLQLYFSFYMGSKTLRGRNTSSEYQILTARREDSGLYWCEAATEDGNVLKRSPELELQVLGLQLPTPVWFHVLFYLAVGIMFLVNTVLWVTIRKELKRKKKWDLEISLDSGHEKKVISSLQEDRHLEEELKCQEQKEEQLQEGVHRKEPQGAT
Sequence of soluble form of the extracellular domain of human CD40 (Creative BioMart, cat #CD402221H) (P25942 21-193 limits assumed): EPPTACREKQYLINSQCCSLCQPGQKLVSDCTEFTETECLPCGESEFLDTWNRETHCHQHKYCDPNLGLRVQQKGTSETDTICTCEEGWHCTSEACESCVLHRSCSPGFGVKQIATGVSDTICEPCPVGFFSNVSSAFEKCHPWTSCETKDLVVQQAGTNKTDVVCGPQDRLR
T2 sequence (P25942 21-193 limits assumed): as above
T8 sequence (P08637 17-254 F176V): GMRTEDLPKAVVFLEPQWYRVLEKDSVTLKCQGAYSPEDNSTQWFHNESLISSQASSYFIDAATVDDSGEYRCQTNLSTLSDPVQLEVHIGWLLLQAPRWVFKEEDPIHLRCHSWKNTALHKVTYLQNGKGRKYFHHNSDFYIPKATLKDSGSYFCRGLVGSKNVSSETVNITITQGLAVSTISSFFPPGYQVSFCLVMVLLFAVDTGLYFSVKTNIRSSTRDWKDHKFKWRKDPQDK
T9 sequence (P08637 17-254): as the sequence (P08637 17-254 F176V) above, with V160F counted along it
T4 sequence (P25942 21-193 limits assumed): as the sequence (P25942 21-193 limits assumed) above

B1: Humanized muAb8 #1 (antibody, V domains shown)
VH: EVQLVQSGAEVKKPGSSVKVSCKASGYTFTDYYINWVRQAPGQGLEWIGWIFPGSGSVYCNEQFKGRATLTVDRSTSTAYMELSSLRSEDTAVYFCASSLGKFAYWGQGTLVTVSS
VL: DIQMTQSPSSLSASVGDRVTITCKASQSVVTAVAWYQQKPGKSPKLLIYSASNRYTGVPSRFSGSGSGTDFTLTISSLQPEDFATYFCQQYSSYPYTFGGGTKVEIK
notes: human IgG1 constant region (natural variants D356E and L358M) and kappa light chain; also called huAb8-1
Maximal activation (OD655) in HEK293 blue CD40 NFκB reporter cells (human CD40 on cells [1]): 0.45 OD655 | NFκB activation EC50 (SEAP, OD655) in HEK293 blue CD40 NFκB reporter cells (human CD40 on cells [1]): 0.14 µg/mL | IC50 (read off the curve) [2]: ~0.3 µg/mL

B2: Humanized muAb8 #3 (antibody, V domains shown)
VH: B1 VH with A68V, L70I, R74K, F95Y
VL: B1 VL
notes: human IgG1 constant region (natural variants D356E and L358M) and kappa light chain; also called huAb8-3
Maximal activation (OD655) in HEK293 blue CD40 NFκB reporter cells (human CD40 on cells [1]): 0.46 OD655 | NFκB activation EC50 (SEAP, OD655) in HEK293 blue CD40 NFκB reporter cells (human CD40 on cells [1]): 0.07 µg/mL | IC50 (read off the curve) [2]: ~0.3 µg/mL

B3: HA-tagged CD40L (R&D Systems) (ligand)
chain: ENSFEMQKGDQNPQIAAHVISEASSKTTSVLQWAEKGYYTMSNNLVTLENGKQLTVKRQGLYYIYAQVTFCSNREASSQAPFIASLCLKSPGRFERILLRAANTHSSAKPCGQQSIHLGGVFELQPGASVFVNVTDPSQVSHGTGFTSFGLLKL
notes: bought; not shown: HA tag
binding result [3]: binds

B4: Humanized muAb9 A2I (antibody, human IgG1, kappa)
heavy: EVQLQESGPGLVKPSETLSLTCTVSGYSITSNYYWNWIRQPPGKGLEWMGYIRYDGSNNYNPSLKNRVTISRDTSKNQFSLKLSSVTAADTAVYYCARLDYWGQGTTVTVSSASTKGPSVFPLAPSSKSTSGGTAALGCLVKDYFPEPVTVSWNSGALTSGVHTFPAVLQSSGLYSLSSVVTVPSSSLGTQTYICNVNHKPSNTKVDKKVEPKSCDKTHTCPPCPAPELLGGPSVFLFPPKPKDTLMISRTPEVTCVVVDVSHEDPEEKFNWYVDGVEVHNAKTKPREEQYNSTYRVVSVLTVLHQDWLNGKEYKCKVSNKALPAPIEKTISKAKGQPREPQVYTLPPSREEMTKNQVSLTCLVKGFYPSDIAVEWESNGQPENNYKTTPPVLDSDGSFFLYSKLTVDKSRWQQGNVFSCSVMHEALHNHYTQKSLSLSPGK
light: DIVMTQTPLSLSVTPGQPASISCRSSQSLENTNGNTFLNWYLQKPGQSPQLLIYRVSNRFSGVPDRFSGSGSGTDFTLKISRVEAEDVGVYYCLQVTHVPFTFGQGTKLEIKRTVAAPSVFIFPPSDEQLKSGTASVVCLLNNFYPREAKVQWKVDNALQSGNSQESVTEQDSKDSTYSLSSTLTLSKADYEKHKVYACEVTHQGLSSPVTKSFNRGEC
notes: human IgG1 V273E/kappa; also called huAb9 A2I; huAb9 A2I (huIgG1 V273E)
NFκB activity EC50; HEK293 blue CD40 reporter cells co-cultured with CHO cells expressing CD16F (human CD40 on cells [4]): 0.39 nM | NFκB activity EC50; HEK293 blue CD40 reporter cells co-cultured with CHO cells expressing CD16V (human CD40 on cells [4]): 0.3 nM | NFκB activity EC50; HEK293 blue CD40 reporter cells co-cultured with CHO cells expressing CD32a (human CD40 on cells [4]): 0.08 nM | NFκB activity EC50; HEK293 blue CD40 reporter cells co-cultured with CHO cells expressing CD32b (human CD40 on cells [4]): 0.07 nM | NFκB activity EC50; HEK293 blue CD40 reporter cells co-cultured with CHO cells expressing CD64 (human CD40 on cells [4]): 0.01 nM | NFκB activity EC50; HEK293 blue CD40 reporter cells co-cultured with FcγR negative CHO cells (human CD40 on cells [4]): 0.72 nM | Kd [5]: 170 nM | koff [5]: 0.22 s⁻¹ | kon [5]: 1.3e+06 M⁻¹ s⁻¹ | Kd [6]: 150 nM | koff [6]: 0.25 s⁻¹ | EC50 (read off the curve) [7]: ~4 µg/mL | EC50 (read off the curve) [8]: ~1 µg/mL

B5: huAb9-5 human IgG1 V273E variant (antibody)
heavy: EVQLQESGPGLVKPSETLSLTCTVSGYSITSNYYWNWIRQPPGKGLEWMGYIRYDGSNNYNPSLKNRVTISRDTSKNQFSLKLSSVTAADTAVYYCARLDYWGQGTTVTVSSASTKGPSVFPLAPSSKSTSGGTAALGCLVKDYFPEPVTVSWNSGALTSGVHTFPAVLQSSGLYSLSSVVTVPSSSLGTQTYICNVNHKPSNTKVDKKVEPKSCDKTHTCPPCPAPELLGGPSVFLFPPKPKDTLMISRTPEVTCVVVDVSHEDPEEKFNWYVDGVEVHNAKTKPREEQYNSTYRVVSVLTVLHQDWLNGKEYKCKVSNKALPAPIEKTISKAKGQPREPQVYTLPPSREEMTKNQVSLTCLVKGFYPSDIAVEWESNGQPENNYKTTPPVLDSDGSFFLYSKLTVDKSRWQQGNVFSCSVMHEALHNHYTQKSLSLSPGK
light: B4 light with I2A
notes: also called huAb9-5 V273E
EC50 (read off the curve) [9]: ~0.5 µg/mL | binding result [10]: binds | binding result [11]: binds | binding result [12]: binds

B6: Humanized muAb9 A2V (antibody, human IgG1, kappa)
heavy: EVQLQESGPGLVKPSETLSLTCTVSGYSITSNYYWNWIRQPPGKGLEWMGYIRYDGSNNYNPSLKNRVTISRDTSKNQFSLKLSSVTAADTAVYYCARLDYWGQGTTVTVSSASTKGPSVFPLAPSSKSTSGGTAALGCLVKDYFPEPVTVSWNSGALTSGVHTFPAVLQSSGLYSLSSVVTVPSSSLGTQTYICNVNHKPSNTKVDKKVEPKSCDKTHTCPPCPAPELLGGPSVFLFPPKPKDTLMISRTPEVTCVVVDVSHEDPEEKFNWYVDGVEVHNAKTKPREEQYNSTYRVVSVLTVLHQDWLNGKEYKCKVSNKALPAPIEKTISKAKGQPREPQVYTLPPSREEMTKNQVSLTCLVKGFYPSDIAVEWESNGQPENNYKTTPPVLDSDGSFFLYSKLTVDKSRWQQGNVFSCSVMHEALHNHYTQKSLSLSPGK
light: B4 light with I2V
notes: human IgG1 V273E/kappa; also called huAb9 A2V
Kd [5]: 170 nM | koff [5]: 0.26 s⁻¹ | kon [5]: 1.5e+06 M⁻¹ s⁻¹ | Kd [6]: 140 nM | koff [6]: 0.27 s⁻¹ | kon [6]: 1.9e+06 M⁻¹ s⁻¹

B7: huAb9-5 human IgG1 V273Y variant (antibody)
heavy: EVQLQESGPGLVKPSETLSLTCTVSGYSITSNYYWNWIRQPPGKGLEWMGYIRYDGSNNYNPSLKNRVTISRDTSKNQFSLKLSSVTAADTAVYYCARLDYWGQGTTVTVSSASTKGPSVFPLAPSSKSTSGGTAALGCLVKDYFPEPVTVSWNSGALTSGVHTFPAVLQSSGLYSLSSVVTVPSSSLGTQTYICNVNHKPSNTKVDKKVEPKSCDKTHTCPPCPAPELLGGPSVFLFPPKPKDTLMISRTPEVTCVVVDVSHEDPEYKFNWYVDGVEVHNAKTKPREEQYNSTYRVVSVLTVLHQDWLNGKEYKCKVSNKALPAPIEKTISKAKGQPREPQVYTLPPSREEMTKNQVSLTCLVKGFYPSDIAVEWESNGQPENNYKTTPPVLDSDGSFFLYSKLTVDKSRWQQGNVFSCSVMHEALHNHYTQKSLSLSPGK
light: B4 light with I2A
notes: also called huAb9-5 V273Y
EC50 (read off the curve) [9]: ~0.4 µg/mL | binding result [10]: binds | binding result [11]: binds

B8: Humanized muAb9 #5 (antibody, human IgG1, kappa)
heavy: not shown
light: B4 light with I2A
notes: wild type human IgG1/kappa; also called huAb9-5; huAb9-5 with wild type huIgG1
Maximal activation (OD655) in HEK293 blue CD40 NFκB reporter cells (human CD40 on cells [1]): 0.67 OD655 | NFκB activation EC50 (SEAP, OD655) in HEK293 blue CD40 NFκB reporter cells (human CD40 on cells [1]): 1.13 µg/mL | EC50 (read off the curve) [9]: ~0.5 µg/mL | binding result [10]: binds | binding result [11]: no binding (tested: 100 µg/mL) | binding result [13]: binds | binding result [12]: binds | EC50 (read off the curve) [8]: ~0.2 µg/mL

B9: AD175.14.11 (antibody, V domains shown)
VH: EVQLQQSGPELVKPGASVKISCKASGYTFTDYYMNWVKQSHGKSLEWIGDINPNNGGTSYNQKFKGKATLTVDKSSSTAYMELRSLTSEDSAVYYCARRGGLGRGTYALDYWGQGTSVTVSS
VL: DIQMTQTTSSLSASLGDRVTISCRASQDISNYLNWYQQKPDGTVKPLIYYTSRLHLGVPSRFSGSGSGTDYSLTISNLEQEDIATYFCQQGNTLPLTFGAGTKLELK
notes: mouse hybridoma monoclonal; also called muAb3
moDC activation (IL-12p70, pg/mL) (human CD40 on cells [14]): 0 pg/mL | OD450 Ratio [15]: 0.09 ratio to isotype control | OD450 with anti-CD40 antibody [15]: 0.068 OD450
